Tests used:
[1] = biological target: T1, TgPK1 (T. gondii pyruvate kinase 1), full length (Toxoplasma gondii, UniProt Q969A2); test: lactate dehydrogenase-coupled NADH assay, Hill fit; assay type: biochemical; conditions: allosteric activator; 1 mM effector, PEP varied 0.01 to 10 mM, 2 mM ADP, 50 mM KCl, 20 mM MgCl2, pH 7.5
T1 construct: gene pk; full length Met1-Glu531, N-terminal His6 tag and TEV site, tag kept; synthetic gene, expressed in E. coli; homotetramer
T1 sequence (Q969A2 1-531): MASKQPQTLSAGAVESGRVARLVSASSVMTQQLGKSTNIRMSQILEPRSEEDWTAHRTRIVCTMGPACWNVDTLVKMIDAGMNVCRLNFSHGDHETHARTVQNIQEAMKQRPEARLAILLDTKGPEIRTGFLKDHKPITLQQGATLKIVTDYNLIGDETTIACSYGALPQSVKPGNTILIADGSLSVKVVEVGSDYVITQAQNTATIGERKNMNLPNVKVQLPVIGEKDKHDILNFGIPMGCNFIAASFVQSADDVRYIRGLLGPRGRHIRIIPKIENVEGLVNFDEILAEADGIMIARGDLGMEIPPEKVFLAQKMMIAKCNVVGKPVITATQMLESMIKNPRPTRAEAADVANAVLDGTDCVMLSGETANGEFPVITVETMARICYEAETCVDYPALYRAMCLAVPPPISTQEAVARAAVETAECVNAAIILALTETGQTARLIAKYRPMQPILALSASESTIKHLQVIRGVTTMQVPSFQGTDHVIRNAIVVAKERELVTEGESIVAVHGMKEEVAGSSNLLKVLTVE

[2] = biological target: Toxoplasma gondii pyruvate kinase 1, N-terminally truncated (Ile39 to Glu531) (Toxoplasma gondii); test: SEC; Superdex 200 26/60 in 10 mM HEPES pH 7.5, 500 mM NaCl; oligomeric state from the elution volume (164 mL full length, 168 mL truncated); profile not shown
[3] = biological target: Toxoplasma gondii pyruvate kinase 1, N-terminally truncated (Ile39 to Glu531) (Toxoplasma gondii); test: crystal structure; truncated TgPK1 crystallised with K+ and Mg2+; 15% PEG3350, 100 mM succinic acid pH 7.0; the asymmetric unit is a tetramer
[4] = biological target: Toxoplasma gondii pyruvate kinase 1, full length (Met1 to Glu531) (Toxoplasma gondii) (UniProt Q27006); test: SEC; Superdex 200 26/60 in 10 mM HEPES pH 7.5, 500 mM NaCl; oligomeric state from the elution volume (164 mL full length, 168 mL truncated); profile not shown
[5] = biological target: Toxoplasma gondii pyruvate kinase 1, full length (Met1 to Glu531) (Toxoplasma gondii) (UniProt Q27006); test: crystal structure; full TgPK1 crystallised without substrates, effectors or added ions; 19% PEG3350, 100 mM BisTris pH 6.0, 200 mM NH4I; the asymmetric unit is a tetramer
[6] = substrate: C=C(OP(=O)(O)O)C(=O)O; test: lactate dehydrogenase-coupled NADH assay, Hill fit; assay type: biochemical, Toxoplasma gondii; conditions: no sugar effector, cooperative (Hill), 2 mM ADP, 50 mM KCl, 20 mM MgCl2, 50 mM HEPES pH 7.5, room temperature
Description: lactate dehydrogenase-coupled NADH assay, Hill fit on TgPK1 (T. gondii pyruvate kinase 1), full length

## O=P(O)(O)OC[C@H]1OC(O)[C@H](O)[C@@H](O)[C@@H]1O (stereo partly shown) [G6P, glucose-6-phosphate]
[1]
  lactate dehydrogenase-coupled NADH assay, Hill fit: G6P showed a classic allosteric activation with a six-fold reduction in the apparent Km

## Toxoplasma gondii pyruvate kinase 1, N-terminally truncated (Ile39 to Glu531) (domain or fragment)
[2]
  stoichiometry N: 4
[3]
  stoichiometry N: 4

## Toxoplasma gondii pyruvate kinase 1, full length (Met1 to Glu531) (from UniProt Q27006 1-509) (enzyme)
[4]
  stoichiometry N: 4
[5]
  stoichiometry N: 4

B1: TgPK1 (T. gondii pyruvate kinase 1), full length (Toxoplasma gondii) (protein)
chain: MASKQPQTLSAGAVESGRVARLVSASSVMTQQLGKSTNIRMSQILEPRSEEDWTAHRTRIVCTMGPACWNVDTLVKMIDAGMNVCRLNFSHGDHETHARTVQNIQEAMKQRPEARLAILLDTKGPEIRTGFLKDHKPITLQQGATLKIVTDYNLIGDETTIACSYGALPQSVKPGNTILIADGSLSVKVVEVGSDYVITQAQNTATIGERKNMNLPNVKVQLPVIGEKDKHDILNFGIPMGCNFIAASFVQSADDVRYIRGLLGPRGRHIRIIPKIENVEGLVNFDEILAEADGIMIARGDLGMEIPPEKVFLAQKMMIAKCNVVGKPVITATQMLESMIKNPRPTRAEAADVANAVLDGTDCVMLSGETANGEFPVITVETMARICYEAETCVDYPALYRAMCLAVPPPISTQEAVARAAVETAECVNAAIILALTETGQTARLIAKYRPMQPILALSASESTIKHLQVIRGVTTMQVPSFQGTDHVIRNAIVVAKERELVTEGESIVAVHGMKEEVAGSSNLLKVLTVE
notes: full length Met1-Glu531, N-terminal His6 tag and TEV site, tag kept; synthetic gene, expressed in E. coli; homotetramer
[6]
  Km: 750 ± 51 µM
  Vmax: 42 µM/min
